Source: patent US20140378659A1

Molecular target: human oxidized LDL (copper-oxidized low-density lipoprotein from plasma of a healthy individual) (human) (UniProt P04114)
Assay: cell-based or functional assay

B1: Human-derived Del-1 (developmental endothelial locus-1), recombinant protein having a His tag added to the C-terminus (protein, not shown: small tags and cut ends)
chain: DICDPNPCENGGICLPGLADGSFSCECPDGFTDPNCSSVVEVASDEEEPTSAGPCTPNPCHNGGTCEISEAYRGDTFIGYVCKCPRGFNGIHCQHNINECEVEPCKNGGICTDLVANYSCECPGEFMGRNCQYKCSGPLGIEGGIISNQQITASSTHRALFGLQKWYPYYARLNKKGLINAWTAAENDRWPWIQINLQRKMRVTGVITQGAKRIGSPEYIKSYKIAYSNDGKTWAMYKVKGTNEDMVFRGNIDNNTPYANSFTPPIKAQYVRLYPQVCRRHCTLRMELLGCELSGCSEPLGMKSGHIQDYQITASSIFRTLNMDMFTWEPRKARLDKQGKVNAWTSGHNDQSQWLQVDLLVPTKVTGIITQGAKDFGHVQFVGSYKLAYSNDGEHWTVYQDEKQRKDKVFQGNFDNDTHRKNVIDPPIYARHIRILPWSWYGRITLRSELLGCTEEE
  uptake of DiI-labeled oxidized LDL into LOX-1-expressing cells (fluorescence intensity): > 90%
